Measured values taken from patent US10100120B2, “Antibody which specifically binds to human CRTH2” (KYOWA HAKKO KIRIN CO., LTD, priority 2015, dated 2018).

Assays:
human CRTH2 [1] = molecular target: T1, human CRTH2 (Homo sapiens, UniProt Q9Y5Y4); test: ELISA reactivity against membrane fractions of human CRTH2-expressing CHO/DG44 cells with GTPγS or GDP treatment; assay type: binding; conditions: HRP-labeled antibody, FIG. 19
T1 construct: expressed in transfected cells
T1 sequence (Q9Y5Y4 1-395): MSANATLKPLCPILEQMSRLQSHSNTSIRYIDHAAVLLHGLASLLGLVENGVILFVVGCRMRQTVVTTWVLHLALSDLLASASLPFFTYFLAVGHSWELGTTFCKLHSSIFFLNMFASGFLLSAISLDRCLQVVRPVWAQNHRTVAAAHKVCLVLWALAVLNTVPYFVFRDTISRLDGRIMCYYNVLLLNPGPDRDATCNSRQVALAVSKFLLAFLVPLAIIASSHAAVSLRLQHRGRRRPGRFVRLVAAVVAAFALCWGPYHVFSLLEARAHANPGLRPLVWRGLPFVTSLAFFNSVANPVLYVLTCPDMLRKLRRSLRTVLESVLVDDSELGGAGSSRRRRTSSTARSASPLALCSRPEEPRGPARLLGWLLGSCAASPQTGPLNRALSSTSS
Experimental: Humanized Lym2 antibody LV0HV1 and hu19A2 v52 were directly labeled with HRP using Peroxidase Labeling Kit-NH2 (Dojindo Molecular Technologies, Inc.) according to the attached document and diluted to 1 mg/mL with D-PBS (−) (NACALAI TESQUE, Inc.).
The human CRTH2-expressing CHO/DG44 cells established in Example 1 were peeled using 0.02% EDTA solution (NACALAI TESQUE, Inc.) and the cells were washed with D-PBS (−) cooled to 4° C. The membrane fractions were prepared using Minute Plasma Membrane Protein Isolation Kit (Invent Biotechnologies) according to the attached document.
50 mM Tris-HCl buffer pH 7.4 (NACALAI TESQUE, Inc.) to which 50 mM HEPES (GIBCO Inc.), 5 mM MgCl2 (NACALAI TESQUE, Inc.), 100 mM NaCl (NACALAI TESQUE, Inc.), and 1 mM EDTA (Invitrogen) were added (hereinafter, referred to as an ELISA reaction solution) was added to the membrane fractions prepared in (2) to have a concentration of 1 mg/mL, and the mixture was added to PROTEOSAVE 1.5 mL Microtubes (Sumitomo Bakelite Co., Ltd.) at 50 μL/tube.
Next, an ELISA reaction solution to which 500 μM GTPγS (Roche Diagnostics K.K.) or 500 μM GDP (Sigma-Aldrich Co. LLC) was added was added to the microtubes at 50 μL/tube for incubation at 30° C. for 1 hour. […]
The absorbance at 480 nm was measured by SPECTRA max 340PC and the obtained result was analyzed using Graphpad Prism (ver. 6.05). […]

human CRTH2 [2] = molecular target: T1, human CRTH2; test: Reactivity in presence of ligand DKPGD2, human CRTH2-expressing 293 EBNA cells; assay type: binding; conditions: DKPGD2 10 μM; antibody 0.3, 1 and 3 μg/mL; relative to absence of DKPGD2; FIG. 13
Experimental: Human CRTH2-expressing 293 EBNA cells were established by introducing the human CRTH2 gene expression pAMoh vector prepared in Example 1-(1)-(ii) into 293 EBNA cells (Invitrogen) using Fugene 6 (Promega Corporation) and selecting drug-resistant cells by culture medium formed of 10% FBS, 0.25 mg/mL of G418 (NACALAI TESQUE, Inc.), […] (NACALAI TESQUE, Inc.), and 300 μg/mL of hygromycin B (Wako Pure Chemical Industries) in DMEM.
The human CRTH2-expressing 293 EBNA cells were peeled using 0.02% EDTA solution (NACALAI TESQUE, Inc.), washed with PBS, and suspended with the above-described culture medium. […]
After the cells were washed 5 times with SM, 10 μg/mL of goat anti-Human IgG Alexa 647 (Molecular Probes) diluted with SM was added to wells to which LV0HV1, hu19A2 v52, hu8B1 v1, ch3C12, or ch31A5 was added, 10 μg/mL of goat anti-Rat IgG Alexa 647 (Molecular Probes) diluted with SM was added to wells to which BM16 was added, and 10 μg/mL of goat anti-Mouse IgG Alexa 647 (Molecular Probes) diluted with SM was added to wells to which 301108 was added at a final concentration of 10 μg/mL to cause a reaction at 4° C. for 40 minutes. After the cells were washed again, the cells were suspended with SM, and the fluorescent intensity was analyzed by flow cytometry (BD Biosciences, FACS CantoII).

B1: LV0HV1: humanized Lym2 antibody, VL LV0 (SEQ ID NO: 33), VH HV1 (SEQ ID NO: 51) (antibody, V domains shown)
VH: EVQLVESGGGVVQPGRSLRLSCAASGFTFSNYYMAWVRQAPGKGLEWVATISYDGSSTYYRDSVKGRFTISRDNAKNSLYLQMNSLRAEDTATYYCARHRGYYYSGAGYFDYWGQGTMVTVSS
VL: DIVMTQTPLSLPVTPGESASISCRSSQSLEYSDGYTYLEWYLQKPGQSPQVLIYGVSNRFSGVPDRFSGSGSGTDFTLKISRVEAEDVGVYYCFQATHDPLTFGQGTKLEIK
reactivity with respect to membrane fractions at GDP treatment compared to GTPγS treatment (human CRTH2 [1]): not changed
binding to human CRTH2-expressing cells in the presence of DKPGD2 (human CRTH2 [2]): almost not decreased
